Measurements taken from publication PMC3260422.

Key:
[1] = biological target: human CSF-1 receptor full-length ectodomain, domains D1-D5 (hCSF-1R_(D1-D5)) (human) (UniProt P07333); test: SAXS
[2] = biological target: human CSF-1 receptor full-length ectodomain, domains D1-D5 (hCSF-1R_(D1-D5)) (human) (UniProt P07333); test: ITC
Target sequence in this assay (P07333 20-517): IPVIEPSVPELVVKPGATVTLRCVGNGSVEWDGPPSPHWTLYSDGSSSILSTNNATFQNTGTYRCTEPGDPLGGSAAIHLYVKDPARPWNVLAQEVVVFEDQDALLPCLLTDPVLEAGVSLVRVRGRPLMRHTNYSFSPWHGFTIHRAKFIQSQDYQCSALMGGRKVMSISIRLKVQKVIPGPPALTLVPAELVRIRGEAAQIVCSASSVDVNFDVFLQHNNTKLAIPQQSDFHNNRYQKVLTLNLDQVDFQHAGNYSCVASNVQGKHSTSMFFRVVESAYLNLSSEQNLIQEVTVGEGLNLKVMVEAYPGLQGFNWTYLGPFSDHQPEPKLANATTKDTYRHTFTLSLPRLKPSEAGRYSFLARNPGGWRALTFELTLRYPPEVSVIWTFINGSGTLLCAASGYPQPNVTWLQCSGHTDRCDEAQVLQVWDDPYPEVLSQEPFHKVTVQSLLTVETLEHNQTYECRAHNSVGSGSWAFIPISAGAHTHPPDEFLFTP

[3] = biological target: mouse CSF-1 receptor full-length ectodomain, domains D1-D5 (mCSF-1R_(D1-D5)) (mouse) (UniProt P09581); test: ITC
[4] = biological target: human CSF-1 receptor full-length ectodomain, domains D1-D5 (hCSF-1R_(D1-D5)) (human) (UniProt P07333); test: field-flow fractionation
Target sequence in this assay (P07333 20-517): as above

[5] = biological target: human Colony Stimulating Factor-1 (hCSF-1), residues 1-149 (human); test: field-flow fractionation
[6] = biological target: mouse CSF-1 receptor, first three extracellular domains (mCSF-1R_(D1-D3)) (mouse) (UniProt P09581); test: ITC
mouse CSF-1 receptor, first three extracellular domains (mCSF-1R_(D1-D3)) (mouse), sequence (P09581 20-298): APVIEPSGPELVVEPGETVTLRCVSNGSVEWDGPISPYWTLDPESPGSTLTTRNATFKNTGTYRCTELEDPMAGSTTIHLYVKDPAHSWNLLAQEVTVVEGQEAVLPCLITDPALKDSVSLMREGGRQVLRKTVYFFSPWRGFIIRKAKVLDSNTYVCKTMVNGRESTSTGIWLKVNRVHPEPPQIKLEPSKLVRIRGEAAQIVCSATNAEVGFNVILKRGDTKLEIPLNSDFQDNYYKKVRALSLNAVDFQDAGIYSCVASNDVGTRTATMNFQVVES

mouse CSF-1 receptor full-length ectodomain, domains D1-D5 (mCSF-1R_(D1-D5)) (mouse), sequence (P09581 20-515): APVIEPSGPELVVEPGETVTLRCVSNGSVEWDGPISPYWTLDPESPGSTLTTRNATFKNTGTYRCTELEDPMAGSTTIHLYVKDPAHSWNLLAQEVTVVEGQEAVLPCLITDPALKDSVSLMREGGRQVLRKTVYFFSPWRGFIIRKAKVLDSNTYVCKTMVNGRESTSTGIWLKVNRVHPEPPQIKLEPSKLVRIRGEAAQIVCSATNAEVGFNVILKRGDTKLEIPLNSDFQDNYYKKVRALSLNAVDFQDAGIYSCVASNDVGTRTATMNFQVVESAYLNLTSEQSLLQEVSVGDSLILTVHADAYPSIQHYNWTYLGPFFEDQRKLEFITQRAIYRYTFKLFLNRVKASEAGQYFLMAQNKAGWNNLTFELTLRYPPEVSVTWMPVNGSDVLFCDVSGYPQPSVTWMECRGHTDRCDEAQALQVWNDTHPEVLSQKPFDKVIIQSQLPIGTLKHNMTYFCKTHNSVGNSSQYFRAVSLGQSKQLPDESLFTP

| stoichiometry N [1] | Kd [2] [nM] | stoichiometry N (CSF-1 dimer per receptor) [2] | Kd [3] [nM] | stoichiometry N (CSF-1 dimer per receptor) [3] | stoichiometry N (CSF-1 dimer per receptor) [4] | stoichiometry N [5] | stoichiometry N (CSF-1 dimer per receptor) [6] | Substance |
| --- | --- | --- | --- | --- | --- | --- | --- | --- |
| 2 |  |  |  |  |  |  |  | human CSF-1 receptor full-length ectodomain, domains D1-D5 (hCSF-1R_(D1-D5)) (from UniProt P07333 20-517) |
|  | 13.6 | 0.5 | 66.2 | 0.5 | 0.5 | 2 |  | human Colony Stimulating Factor-1 (hCSF-1), residues 1-149 (ligand) |
|  | 2800 | 0.5 | 21.7 | 0.5 |  |  | 0.5 | mouse Colony Stimulating Factor-1 (mCSF-1), residues 1-149 (ligand) |
